Reference: PMC2981644 (Journal of molecular biology, 2010)
Blank lines part the entries; values can stand above or below the binder they belong to. No end group written: not given here. Alexa 488 = Alexa Fluor 488 dye

T1: Clathrin heavy chain terminal domain (Rattus norvegicus, UniProt P11442)
T1 chain: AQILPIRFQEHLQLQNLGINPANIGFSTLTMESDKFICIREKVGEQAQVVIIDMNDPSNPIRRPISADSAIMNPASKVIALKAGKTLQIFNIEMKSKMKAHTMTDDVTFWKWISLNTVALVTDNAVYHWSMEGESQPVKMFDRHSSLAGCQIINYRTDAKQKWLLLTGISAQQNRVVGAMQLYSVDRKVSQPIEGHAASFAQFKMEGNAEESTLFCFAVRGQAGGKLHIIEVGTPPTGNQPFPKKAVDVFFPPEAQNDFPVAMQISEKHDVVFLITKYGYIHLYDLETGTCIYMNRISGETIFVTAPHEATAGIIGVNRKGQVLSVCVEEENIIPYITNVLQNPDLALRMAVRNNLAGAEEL

B1: clathrin TD, N-terminal domain of the clathrin heavy chain (aa 1-363) (domain or fragment, UniProt P49951 1-363, looked up)
chain: MAQILPIRFQEHLQLQNLGINPANIGFSTLTMESDKFICIREKVGEQAQVVIIDMNDPSNPIRRPISADSAIMNPASKVIALKAGKTLQIFNIEMKSKMKAHTMTDDVTFWKWISLNTVALVTDNAVYHWSMEGESQPVKMFDRHSSLAGCQIINYRTDAKQKWLLLTGISAQQNRVVGAMQLYSVDRKVSQPIEGHAASFAQFKMEGNAEESTLFCFAVRGQAGGKLHIIEVGTPPTGNQPFPKKAVDVFFPPEAQNDFPVAMQISEKHDVVFLITKYGYIHLYDLETGTCIYMNRISGETIFVTAPHEATAGIIGVNRKGQVLSVCVEEENIIPYITNVLQNPDLALRMAVRNNLAGAEEL
B2: AP180 M5 site 1 (residues 667-668 to alanines), fluorescently labelled for AUC (domain or fragment)
chain: {Alexa 488}-ASTASPAK(Alexa 488)AESSGVIDLFGDAFGSGASETQPAPQAVSSSSASADAAAGFGGSFMAPST
B3: Alexa488-AP180 M5 (aa 623-680), wild type, fluorescently labelled (domain or fragment)
chain: {Alexa 488}-ASTASPAK(Alexa 488)AESSGVIDLFGDAFGSGASETQPAPQAVSSSSASADLLAGFGGSFMAPST
B4: AP180 M5 site 2 (residues 639-642 to alanines), fluorescently labelled for AUC (domain or fragment)
chain: {Alexa 488}-ASTASPAK(Alexa 488)AESSGVIDAAAAAFGSGASETQPAPQAVSSSSASADLLAGFGGSFMAPST

Key:
[1] = biological target: AP180 M5 site 2 (single-site AP180 M5, residues 639-642 mutated to alanines; binding site 1 mutated), Q05140; experiment: NMR titration
[2] = biological target: AP180 M5 site 1 (single-site AP180 M5, residues 667-668 mutated to alanines; binding site 2 mutated), Q05140; experiment: NMR titration
[3] = biological target: AP180 M5 (aa 623-680), wild type, middle segment of the AP180 C-terminal domain (UniProt Q05140-2 623-680); experiment: NMR titration
[4] = biological target: T1, Clathrin heavy chain terminal domain; experiment: NMR
[5] = biological target: B1; experiment: AUC

Binder: B1
Kd [1]: 246 µM | Kd [2]: 168 µM | KD of binding site 1 [3]: 160 ± 23 µM | KD of binding site 2 [3]: 224 ± 48 µM

Kd [4]: 160 µM
Binder: TAVDAFAAPSPASTASPAKA [AP180 M5 fragment, binding site 1]

Binder: B2
Kd [5]: 251 ± 3 µM

Binder: B3
Kd [5]: 173 ± 11 µM

Binder: B4
Kd [5]: 253 ± 8 µM
